In the Human Domainome abundance scans (Beltran et al. 2025):
± gives the uncertainty stated by the source.

B1: Pyruvate dehydrogenase protein X component, mitochondrial, residues 181 to 227; numbered along this chain, O00330 (parent)
chain: RFRLSPAARNILEKHSLDASQGTATGPRGIFTKEDALKLVQLKQTGK

Variants of: B1
Assay: abundance fitness (aPCA) (normalised: wild type 0, dead -1); higher = more abundant; growth selection in yeast, the domain comes from the species named
Details: Homo sapiens

Variant	abundance fitness
RFRLSPRARNILEKHSLDASQGTATGPRGIFTKEDALKLVQLKQTGK	-0.222 ± 0.047
RFRLSPSARNILEKHSLDASQGTATGPRGIFTKEDALKLVQLKQTGK	-0.078 ± 0.052
RFRLSPTARNILEKHSLDASQGTATGPRGIFTKEDALKLVQLKQTGK	0.01 ± 0.073
RFRLSPWARNILEKHSLDASQGTATGPRGIFTKEDALKLVQLKQTGK	-0.98 ± 0.13
RFRLSPACRNILEKHSLDASQGTATGPRGIFTKEDALKLVQLKQTGK	-0.999 ± 0.096
RFRLSPAERNILEKHSLDASQGTATGPRGIFTKEDALKLVQLKQTGK	-0.183 ± 0.055
RFRLSPAFRNILEKHSLDASQGTATGPRGIFTKEDALKLVQLKQTGK	-0.683 ± 0.12
RFRLSPAHRNILEKHSLDASQGTATGPRGIFTKEDALKLVQLKQTGK	-0.564 ± 0.076
RFRLSPAIRNILEKHSLDASQGTATGPRGIFTKEDALKLVQLKQTGK	-1.07 ± 0.17
RFRLSPALRNILEKHSLDASQGTATGPRGIFTKEDALKLVQLKQTGK	-1.02 ± 0.077
RFRLSPAMRNILEKHSLDASQGTATGPRGIFTKEDALKLVQLKQTGK	-0.29 ± 0.1
RFRLSPANRNILEKHSLDASQGTATGPRGIFTKEDALKLVQLKQTGK	-0.817 ± 0.18
RFRLSPAQRNILEKHSLDASQGTATGPRGIFTKEDALKLVQLKQTGK	-0.601 ± 0.087
RFRLSPARRNILEKHSLDASQGTATGPRGIFTKEDALKLVQLKQTGK	-0.391 ± 0.054
RFRLSPATRNILEKHSLDASQGTATGPRGIFTKEDALKLVQLKQTGK	-0.387 ± 0.06
RFRLSPAVRNILEKHSLDASQGTATGPRGIFTKEDALKLVQLKQTGK	-0.639 ± 0.055
RFRLSPAWRNILEKHSLDASQGTATGPRGIFTKEDALKLVQLKQTGK	-1.15 ± 0.17
RFRLSPAYRNILEKHSLDASQGTATGPRGIFTKEDALKLVQLKQTGK	-0.902 ± 0.063
RFRLSPAAANILEKHSLDASQGTATGPRGIFTKEDALKLVQLKQTGK	-0.135 ± 0.063
RFRLSPAACNILEKHSLDASQGTATGPRGIFTKEDALKLVQLKQTGK	-0.924 ± 0.12
RFRLSPAADNILEKHSLDASQGTATGPRGIFTKEDALKLVQLKQTGK	-0.262 ± 0.058
RFRLSPAAENILEKHSLDASQGTATGPRGIFTKEDALKLVQLKQTGK	-0.21 ± 0.085
RFRLSPAAGNILEKHSLDASQGTATGPRGIFTKEDALKLVQLKQTGK	-0.152 ± 0.042
RFRLSPAAHNILEKHSLDASQGTATGPRGIFTKEDALKLVQLKQTGK	-0.252 ± 0.092
RFRLSPAAINILEKHSLDASQGTATGPRGIFTKEDALKLVQLKQTGK	-0.137 ± 0.056
RFRLSPAAKNILEKHSLDASQGTATGPRGIFTKEDALKLVQLKQTGK	0.1 ± 0.05
RFRLSPAAMNILEKHSLDASQGTATGPRGIFTKEDALKLVQLKQTGK	-0.251 ± 0.074
RFRLSPAANNILEKHSLDASQGTATGPRGIFTKEDALKLVQLKQTGK	-0.092 ± 0.048

Variant	abundance fitness
RFRLSPAAQNILEKHSLDASQGTATGPRGIFTKEDALKLVQLKQTGK	-0.05 ± 0.079
RFRLSPAASNILEKHSLDASQGTATGPRGIFTKEDALKLVQLKQTGK	-0.272 ± 0.053
RFRLSPAAVNILEKHSLDASQGTATGPRGIFTKEDALKLVQLKQTGK	-0.206 ± 0.054
RFRLSPAAWNILEKHSLDASQGTATGPRGIFTKEDALKLVQLKQTGK	-0.668 ± 0.089
RFRLSPAAYNILEKHSLDASQGTATGPRGIFTKEDALKLVQLKQTGK	-0.495 ± 0.076
RFRLSPAARAILEKHSLDASQGTATGPRGIFTKEDALKLVQLKQTGK	0.063 ± 0.048
RFRLSPAARCILEKHSLDASQGTATGPRGIFTKEDALKLVQLKQTGK	-0.13 ± 0.055
RFRLSPAARDILEKHSLDASQGTATGPRGIFTKEDALKLVQLKQTGK	0.192 ± 0.085
RFRLSPAAREILEKHSLDASQGTATGPRGIFTKEDALKLVQLKQTGK	0.439 ± 0.074
RFRLSPAARFILEKHSLDASQGTATGPRGIFTKEDALKLVQLKQTGK	0.106 ± 0.088
RFRLSPAARGILEKHSLDASQGTATGPRGIFTKEDALKLVQLKQTGK	-0.058 ± 0.046
RFRLSPAARHILEKHSLDASQGTATGPRGIFTKEDALKLVQLKQTGK	-0.086 ± 0.058
RFRLSPAARKILEKHSLDASQGTATGPRGIFTKEDALKLVQLKQTGK	-0.014 ± 0.079
RFRLSPAARLILEKHSLDASQGTATGPRGIFTKEDALKLVQLKQTGK	0.064 ± 0.048
RFRLSPAARMILEKHSLDASQGTATGPRGIFTKEDALKLVQLKQTGK	-0.052 ± 0.087
RFRLSPAARPILEKHSLDASQGTATGPRGIFTKEDALKLVQLKQTGK	-0.163 ± 0.069
RFRLSPAARQILEKHSLDASQGTATGPRGIFTKEDALKLVQLKQTGK	0.106 ± 0.051
RFRLSPAARRILEKHSLDASQGTATGPRGIFTKEDALKLVQLKQTGK	0.024 ± 0.047
RFRLSPAARSILEKHSLDASQGTATGPRGIFTKEDALKLVQLKQTGK	0.003 ± 0.054
RFRLSPAARTILEKHSLDASQGTATGPRGIFTKEDALKLVQLKQTGK	0.002 ± 0.048
RFRLSPAARVILEKHSLDASQGTATGPRGIFTKEDALKLVQLKQTGK	-0.001 ± 0.058
RFRLSPAARWILEKHSLDASQGTATGPRGIFTKEDALKLVQLKQTGK	-0.272 ± 0.048
RFRLSPAARYILEKHSLDASQGTATGPRGIFTKEDALKLVQLKQTGK	-0.192 ± 0.12
RFRLSPAARNALEKHSLDASQGTATGPRGIFTKEDALKLVQLKQTGK	-0.356 ± 0.057
RFRLSPAARNCLEKHSLDASQGTATGPRGIFTKEDALKLVQLKQTGK	-0.485 ± 0.07
RFRLSPAARNDLEKHSLDASQGTATGPRGIFTKEDALKLVQLKQTGK	-0.175 ± 0.091
RFRLSPAARNELEKHSLDASQGTATGPRGIFTKEDALKLVQLKQTGK	-0.528 ± 0.075
